Our source for the IC50 values is the Immune Epitope Database (IEDB).

What is called IC50 is the concentration that gives 50% inhibition.

Some targets named below: HLA-B*44:03; HLA-A*02:01; HLA-B*35:01; HLA-B*53:01; HLA-B*57:01; HLA-B*07:02.
Common to all, as to assay: IEDB peptide-MHC binding, purified MHC/competitive/radioactivity; ≥ and ≤ were set here for values at or beyond the usual limits of such assays
Settings in all cases: source organism: Bordetella pertussis

On to AESNALSKR, for which the IC50 with HLA-B*44:03 turned out to be 44.2 µM.
As to AGLAGPSAV, the IC50 with HLA-A*02:01 is at least 78.1 µM.
For the sequence DAKHDLTVT, in the assay with HLA-B*35:01, the IC50 worked out at 69.9 µM.
Take DENGKPQTY: in the assay with HLA-B*44:03, the IC50 is 11.5 µM.
Turning to FAISAYALK, the IC50 in the assay with HLA-B*53:01 came out at 4.42 µM.
In the case of FALYDGTYL, the concentration for half-maximal inhibition (IC50) with HLA-B*35:01 came to 20.9 µM.
As for GLDVQQGTV, the IC50 in the assay with HLA-A*02:01 amounted to 60 µM.
For the sequence KAGTIAAPW, in the assay with HLA-B*57:01, the IC50 was 0.297 µM.
Turning to KEDVDAAQI, in the assay with HLA-B*44:03, the IC50 is 34.2 µM.
For the sequence LAAVLVNPH, the IC50 with HLA-B*35:01 was 69.9 µM.
Consider QSIVEAPEL, for which the IC50 with HLA-A*02:01 was found to be 46 µM.
Regarding TGDGGGHTD, the IC50 with HLA-B*53:01 worked out at 69.9 µM.
Regarding TPLGSLFAI, the values for the IC50 with HLA-B*53:01 and in the assay with HLA-B*35:01 were 8.19 µM and 1.34 µM, respectively.
In the case of YATNPQTQL, the IC50 in the assay with HLA-B*07:02 worked out at 69.6 µM.
For YEYIWGLYP, in the assay with HLA-B*44:03, the IC50 was 8.39 µM.
YEYSKGPKL: in the assay with HLA-B*44:03, the IC50 is 47.7 µM.
